Measured values published in patent publication US20250206819A1 (MorphoSys, published 2025).
“And” between values parts separate entries of the source, which are not always exact repeats. Equal values may be shown once.

B1: BissIg_18_opt_cc# (bispecific antibody, human IgG1, kappa, lambda)
heavy 1: not shown
light 1: not shown
heavy 2: EVQLVESGGGLVQPGGSLRLSCAASGFSFGSHYMSWVRQAPGKGLEWVANINQIGYSSYYVESVKGRFTISRDNAKNSLYLQMNSLRAEDTAVYYCARGYSAEFAHRSGLDVWGQGTLVTVSSASTKGPSVFPLAPSSKSTSGGTAALGCLVKDYFPEPVTVSWNSGALTSGVHTFPAVLQSSGLYSLSSVVTVPSSSLGTQTYICNVNHKPSNTKVDKRVEPKSCDKTHTCPPCPAPEAEGAPSVFLFPPKPKDTLMISRTPEVTCVVVDVSHEDPEVKFNWYVDGVEVHNAKTKPREEQYNSTYRVVSVLTVLHQDWLNGKEYKCKVSNKALPSSIEKTISKAKGQPREPQVYTLPPSREEMTKNQVSLTCLVKGFYPSDIAVEWESNGQPENNYKTTPPVLDSDGSFLLYSKLTVDKSRWQQGNVFSCSVMHEALHNHYTQKSLSLSPGK
light 2: not shown
B2: BissIg_18_opt_VH#1 (bispecific antibody, V domains shown)
VH 1: not shown
VL 1: not shown
VH 2: EVQLVESGGGLVQPGGSLRLSCAASGFSFGSHYMSWVRQAPGKGLEWVANINQIGYSSYYVESVKGRFTISRDNAKNSLYLQMNSLRAEDTAVYYCARGYSAEFAHRSGLDVWGQGTLVTVSS
VL 2: QSVLTQPPSASGTPGQRVTISCSGSSSNIGSNYVYWYQQLPGTAPKLLIYRNNQRPSGVPDRFSGSKSGTSASLAISGLRSEDEADYYCAAWDHHRSGAVFGGGTKLTVLGQ
notes: 1+1 IgG1 made by Fab-arm exchange; AEASS Fc; F405L in the CD3 half, K409R in the HER2 half
B3: BissIg_18_opt_VL (bispecific antibody, V domains shown)
VH 1: not shown
VL 1: not shown
VH 2: EVQLVESGGGLVQPGGSLRLSCAASGFTFSSYWMSWVRQAPGKGLEWVANIKQDGSEKYYVDSVKGRFTISRDNAKNSLYLQMNSLRAEDTAVYYCARGYSAEFAHRSGLDVWGQGTLVTVSS
VL 2: QSVLTQPPSASGTPGQRVTISCSGSSSNIGSNYVYWYQQLPGTAPKLLIYRNNQRPSGVPDRFSGSKSGTSASLAISGLRSEDEADYYCAGWSRSLHGAVFGGGTKLTVLGQ
notes: as for B2
B4: Bisslg_08_#GP (bispecific antibody)
VH: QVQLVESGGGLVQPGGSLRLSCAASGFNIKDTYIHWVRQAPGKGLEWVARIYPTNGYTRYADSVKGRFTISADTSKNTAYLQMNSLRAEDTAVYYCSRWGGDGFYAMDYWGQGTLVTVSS
VL: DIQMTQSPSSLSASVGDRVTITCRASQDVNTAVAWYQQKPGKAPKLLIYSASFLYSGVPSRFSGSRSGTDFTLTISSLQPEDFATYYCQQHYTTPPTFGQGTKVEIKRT
scFv: QSVLTQPPSASGTPGQRVTISCSGSSSNIGSNYVYWYQQLPGTAPKLLIYRNNQRPSGVPDRFSGSKSGTSASLAISGLRSEDEADYYCAAWDHHRSGAVFGGGTKLTVLGQAQPAAPAPNAHEAPAPAQGSEVQLVESGGGLVQPGGSLRLSCAASGFTFSSYWMSWVRQAPGKGLEWVANIKQDGSEKYYVDSVKGRFTISRDNAKNSLYLQMNSLRAEDTAVYYCARGYSAEFAHRSGLDVWGQGTLVTVSS
notes: Format as Bisslg_08_#1: aglycosylated human IgG1, AEASS Fc, knob-into-hole; also called CD3-MABGP in the bispecific 2+1 Fab2-Fc-scFv format; grandparent antibody CD3-MABGP

Experiments:
[1] = biological target: T1, human CD3 expressed on cells (Jurkat cells, human T cells) (human, UniProt P07766 22-207); experiment: cell-based or functional assay
T1 sequence (P07766 22-207): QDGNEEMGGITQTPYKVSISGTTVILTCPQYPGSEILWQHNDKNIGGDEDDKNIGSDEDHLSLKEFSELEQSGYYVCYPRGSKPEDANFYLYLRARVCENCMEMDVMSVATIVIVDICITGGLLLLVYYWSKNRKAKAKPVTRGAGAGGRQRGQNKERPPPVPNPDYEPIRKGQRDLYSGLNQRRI

[2] = biological target: Mature human CD3e(22-118)_FLAG-chLys_Avi (human); experiment: BLI (Octet), bispecific captured, antigen as analyte; heterogenous binding
Chain of Mature human CD3e(22-118)_FLAG-chLys_Avi (human) (chain, as listed by the source limits assumed): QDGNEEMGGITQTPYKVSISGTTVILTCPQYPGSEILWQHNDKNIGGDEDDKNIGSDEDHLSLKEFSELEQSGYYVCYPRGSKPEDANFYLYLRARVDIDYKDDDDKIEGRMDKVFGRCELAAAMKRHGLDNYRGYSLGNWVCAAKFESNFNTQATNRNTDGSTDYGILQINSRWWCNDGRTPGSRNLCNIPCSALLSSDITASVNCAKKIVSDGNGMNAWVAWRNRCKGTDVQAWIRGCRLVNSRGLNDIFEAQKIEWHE
Protocol: (§1) Affinity determination by determining kinetic rate constants was performed on an Octet HTX (FortéBIO, Sartorius AG) instrument. […] The association phase was recorded for 180 s, followed by a dissociation phase of 300 s. After each cycle, the biosensors were regenerated two times with 10 mM Glycine HCl pH 1.7 to remove bound ligand/antibody complex, while maintaining the integrity of the capture surface. Between regeneration steps, biosensors were washed with assay buffer for 20 s. Sensorgrams were evaluated with Data Analysis Software v 10 (Octet/fortébio). All sensorgrams were fitted to a 1:1 binding model to determine kₒₙ and koff rate constants, which were used to calculate the KD value. For kinetic profiles deviating from the expected 1:1 binding, the sensorgrams were evaluated using a best approximation to the monovalent kinetics, and results marked with comment “heterogeneous binding”.

[3] = biological target: T1, human CD3 expressed on cells (Jurkat …); experiment: cell-based or functional assay; remark: listed apart in the source
[4] = biological target: Mature human CD3e(22-118)_FLAG-chLys_Avi (human); experiment: BLI (Octet), bispecific captured, antigen as analyte
Protocol: as §1

[5] = biological target: T1, human CD3 expressed on cells (Jurkat …); experiment: flow cytometry on Jurkat cells
Protocol: Target cells were mixed with the bispecific antibodies serially diluted (final concentration: 0.1 nM-200 nM) in D-PBS (Gibco) containing 3% fetal bovine serum (Sigma, #F7524) and incubated for 1 h on ice. Cells were washed 2 times in D-PBS (Gibco) containing 3% fetal bovine serum (Sigma, #F7524) and 0.02% […]. […] Antibody staining was measured using FACS Array (Beckton Dickinson) or IntelliCyt iQue flow cytometer and analyzed in FlowJo or ForeCyt (IntelliCyt) softwares, respectively. EC₅₀ values were calculated using 4-parameter non-linear regression analysis in Prism software (GraphPad Software Inc.).

[6] = biological target: Mature human CD3e(22-118)_FLAG-chLys_Avi (human); experiment: BLI (Octet), bispecific captured, antigen as analyte; remark: listed apart in the source
Protocol: Sensorgrams were evaluated with Data Analysis Software v 10 (Octet/fortébio). All sensorgrams were fitted to a 1:1 binding model to determine kₒₙ and koff rate constants, which were used to calculate the KD value. For kinetic profiles deviating from the expected 1:1 binding, the sensorgrams were evaluated using a best approximation to the monovalent kinetics, and results marked with comment “heterogeneous binding”.

[7] = biological target: T1, human CD3 expressed on cells (Jurkat …); experiment: flow cytometry on human T cells, 167 nM antibody
[8] = biological target: T2, Mature human CD3e(22-49)_Fc2(K105-K330) (human); experiment: ELISA, antigen coated on plate
T2 construct: also called hCD3e(22-49)-Fc2(K105-K330); recombinant human CD3e (22-49)-Fc2 (K105-K330)
Protocol: (§2) Bispecific Fab₂-Fc-scFv antibodies according Example 1.2 were tested for their ability to bind to recombinant human and cynomolgus CD3epsilon antigen in ELISA. 5 nM of recombinant human CD3e (22-49)-Fc2 (K105-K330) (SEQ ID NO: 41) or 1 nM of recombinant cynomolgus CD3e (22-49)-Fc2(K105-K330) (SEQ ID NO: 42) were coated on Maxisorp plates (Nunc, #460518). Coated plates were blocked with 5% skim milk in PBS. Antibodies were serially diluted in PBS containing 0.5% skim milk and 0.5% Tween-20. […] EC₅₀ values were calculated using 4-parameter non-linear regression analysis in Prism software (GraphPad Software Inc.)

[9] = biological target: T3, Mature cynomolgus CD3e(22-49)_Fc2(K105-K330) (cynomolgus); experiment: ELISA, antigen coated on plate
T3 construct: also called cyCD3e(22-49)-Fc2(K105-K330); recombinant cynomolgus CD3e (22-49)-Fc2(K105-K330)
Protocol: as §2

[10] = biological target: T1, human CD3 expressed on cells (Jurkat …); experiment: cell-based or functional assay; remark: listed apart in the source

Binder | Reporter gene assay MCF-7 EC50 [1] | Reporter gene assay SKOV3 EC50 [1] | Kd [2] | T cell mediated killing MCF-7 [T cells] IC50 [pM] [3] | T cell mediated killing SKBR3 [PBMCs] IC50 [pM] [3] | koff [4] | kon [4] | EC50 [5] | Kd [6] | T cell binding @ antibody conc. of 167 nM [S/BG] [7] | EC50 [8] | EC50 [9] | RGA @ antibody conc. of 1 nM [S/BG] SKBR3 (Jurkat NFAT reporter gene assay) [10]
B1 | < 0.2 nM | 0.07 nM | 0.9 nM | < 10 pM and 13.2 pM | 1.8 pM | 0.0011 s⁻¹ | 1.2e+06 M⁻¹ s⁻¹ | 7 nM | – | – | – | – | –
B2 | 0.33 nM | 0.18 nM | 17 nM | 210 pM | 15 pM | 0.0044 s⁻¹ | 250000 M⁻¹ s⁻¹ | 9 nM | – | – | – | – | –
B3 | – | – | 28 nM | – | – | 0.0041 s⁻¹ | 150000 M⁻¹ s⁻¹ | – | – | – | – | – | –
B4 | – | – | – | – | – | – | – | – | 240 nM | 1.4 S/BG | 248 nM | 369 nM | 1 S/BG
